# B1: TPR t1 (parent)
# chain: GACCAAUCUGCCCUCAGAGCUCGAGAACAUCUUCGGAUGCAGAGGAGGCAGGCUUCGGUGGCGCGAUAGCGCCAACGUCCUCAACCUCCAAUGCAUCCCACCACAUGAUGAUGCCUGAAGAGCCUUGGUUUUUUG
# Variants of: B1
# Assay: polymerase ribozyme fitness, log enrichment relative to wild type (log ratio); higher = more active; in vitro selection for triplet polymerase activity
# Procedure, shortened: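 After PCR construction and transcription, each subunit's mutant library from a heterodimeric triplet polymerase ribozyme was annealed with a biotinylated primer, the partner subunit and triplets. Incubation was frozen, at −7 °C, and extended constructs were gel-excised, bound to streptavidin beads and amplified by RT-PCR, in one selection round done in triplicate. Fitness is the logarithm of a genotype's enrichment divided by that of the wild type, from inverse-variance-weighted replicate averages of Illumina-sequenced inputs and outputs. The base of the logarithm is 2, and genotypes needed ≥10 input reads and ≥1 read per output.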
row,Variant,polymerase ribozyme fitness (log ratio)
1,G17C C104A,-6.53
2,A16G C53G G58A A91C A119U,-4.1
3,G17A C73U,-2.84
4,C15U G48U A103C C123G,-6.34
5,G17A C79G C124G U125A,-4.5
6,A16U G52C G71U G117C A118G U126A,-6.61
7,C15U U133G,-2.11
8,C15U U133A,-1.79
9,G17A U55A C72A,-3.74
10,C15U U59G C70U C104A,-4.32
11,C15U G117U G120A,-1.56
12,G17A G23A C64A C102G U109A,-6.59
13,A16U C73U A83U A95C,-2.3
14,A16G C34A,-3.22
15,G17A U131A,-1.99
16,A16G G39U C53G,-2.41
17,G17A C72U C114U,-5.33
18,A16U C28U G120U,-3.52
19,A16U A29U G36A A43C G44U C53A G63C U112C,-5.08
20,A16C G61C G69U U81A G120C,-3.32
21,A16U C123A U125A,-0.935

row,Variant,polymerase ribozyme fitness (log ratio)
1,A16U C94U C101U U116C G128U U132A,-5.42
2,G17A C70U G120U,-2.58
3,G17A G44A,-3.41
4,G17A G127C,-4.54
5,A16U A18C G52A U96C U112A,-4.51
6,G17A G61A C64U C73U A75C,-4.03
7,C15U U30G C53G G71C U78G U106A,-4.3
8,A16U C22U C124A,-2.87
9,A16G A18C U54G,-0.225
10,G17C C56U C89U,-3.95
11,A16U A50G G60U C97G U125A,-7.95
12,G17C G25U G47C G120A G127A,-7.42
13,C15U G61C C104A C124U,-3.58
14,A16C C79G,-4.14
15,A16U G71U U106G A111U,-5.64
16,G17C C20G G47C C72U G113A A119C,-7.02
17,A16U U112A,0.0459
18,A16C A18C C40U G71U C79U,-5.22
19,G17A G63U,-3.9
20,A16U A37U C97U,-5.8
21,G17A C56G,-3.4

row,Variant,polymerase ribozyme fitness (log ratio)
1,A16U C40U C73G,-2.11
2,G17A G61U C104U A111G,-2.95
3,A16G A37U G71U A90G,-1.9
4,G17A U55C G61U G113A U130C,-5.74
5,C15U U96C U129A,-2.88
6,A16C G52A G60A,-2.03
7,A16G C40U A43U C72G,-3.42
8,C15U U96A,-1.57
9,G17A G71C,-3.64
10,G17A U96C,-3.36
11,G17C A43U G61A U87G G120C,-1.48
12,A16G G60A,-1.26
13,G17C C28A G63A G120C C123G,-6.85
14,A16C C101A G120A,-3.59
15,A16U G127U,-2.81
16,C15U U33G C88G C115G,-6.42
17,A16G C98U,-3.02
18,A16U G23A G60A A111G G122U,-7.12
19,G17A C73A G120C G135A,-1.5
20,A16U G61A,-0.972
21,A16G C49A C79U G93A G117U C123G,-2.9

row,Variant,polymerase ribozyme fitness (log ratio)
1,G17A A18C C86G,-3.63
2,A16U G45A C70U A118U,-2
3,A16G G63U,-1.65
4,G17C A84U,-4.87
5,A16C C101U,-2.45
6,A16U A37G,-2.1
7,A16U A37U,-2.13
8,G17C C62U,-4.67
9,A16U G17C C73U,-3.41
10,G17A G77A,-3.49
11,A16G C56A G71U C124A U130A,0.162
12,G17A U132A,-2.35
13,G17A C98U,-5.09
14,A16U C56U,-1.86
15,A16G U55A G60A G93U C102U U130G,-3.39
16,C15U G120C,-0.175
17,A16C C73U C115G,-3.06
18,G17A G93A A121C,-1.03
19,G17C G57A C124U,-5.29
20,G17A G52U,-4.1

# Source: the RNAGym collection of RNA variant scans (doi:10.1073/pnas.2313332121)
